Measurements: the supplement of paper PMC9170038

Test system: MS2 coat protein
Experiment: apparent KD of MS2 coat protein; designed switch direction (-1 OFF switch, 1 ON switch): -1; higher = weaker reporter binding
Method in brief: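 Normalised cluster fluorescence was curve-fitted, and each design's median over clusters is its apparent KD. Before this, SNAP-549-labelled MS2 coat protein was titrated from 0.7 or 1.5 nM, doubling to 3 µM, over RNA switches transcribed on Illumina chips by stalled E. coli RNA polymerase. Titrations had no input, 200 uM small-molecule ligand, or an oligonucleotide input, and steps lasted 0.8–1.5 h (lowest) to 10–20 min (highest).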

[1] = Eterna round: R95, input ligand: FMN 200 uM
[2] = Eterna round: R95, input ligand: microRNA oligo, concentration not stated
[3] = Eterna round: R95, input ligand: none
[4] = input ligand: microRNA oligo, concentration not stated

Sequence	apparent KD of MS2 coat protein [1] [nM]	apparent KD of MS2 coat protein [2] [nM]	apparent KD of MS2 coat protein [3] [nM]	apparent KD of MS2 coat protein (input ligand: FMN 200 uM) [nM]	apparent KD of MS2 coat protein [4] [nM]	apparent KD of MS2 coat protein (input ligand: none) [nM]
CUGAGGUAGCGGUCCUAUGACAUGAGGAUCACCCAUGUACCUUGCUUCGAGCUUUUUGCUCGUCUUAUGAUUCUCAG [Mat - Sensor v3 - turn-off var 1 - JL Mod - D32] (puzzle: Sensor v3, turn-off variant 1)	114	405	162	–	–	–
UACAUGUGAGGAUAUGUACGAAGCCCGGCUGGGCCUCGCAGGCAGAAGGCACAUGAGGAUCACCCAUGUGACCG [Enanvezave] (Eterna round: R96, puzzle: Exclusion 4)	–	–	–	82.6	13.1	17.3
UUGACGGCAGGAUAUACAUGAGGAUCACCCAUGUAAAUUUUUCGUUUAACUUGAAUGUGUAGAAGGGCCAAACC [Ex3 #77] (Eterna round: R97, puzzle: Exclusion 3)	–	–	–	19.4	–	20.4
AUAUUGUGAGGAUAUGAACUUAGUAUGGAAAGAUACUAAGUUCAGAAGGCACAUGAGGAUCACCCAUGUUUCUC [Long static hairpin v12] (Eterna round: R97, puzzle: Exclusion 4)	–	–	–	34	–	26.9
ACGAUGACAGAAAGAAGUCAAAAGACAUGAGGAUCACCCAUGUAGGAUAUGGCUACGAAAAGUAGUCAGAAGGACUUGUCAUCA [Omei Exc(NG) 3 Av2] (Eterna round: R96, puzzle: Exclusion NG 3)	–	–	–	13.1	9.48	14.3
UUUAAUGGAAUUAAGAUCACAUGAGGAUCACCCAUGUAUAUAUAGGAUAUCAGCUCGAUUAGAGCUGAGAAGGAUAUAUACAUA [ExNG3/6-B1] (Eterna round: R96, puzzle: Exclusion NG 3)	–	–	–	31.6	199	91.6
GCAAAAUAUCAGGAUAUGACUAAUUGCGUUAAGUCAGAAGGGAUAACAUGAGGAUCACCCAUGUGAUAUAGUGU [JR_Ex6_Sub030] (Eterna round: R97, puzzle: Exclusion 6)	–	–	–	237	–	169
CAUCCACAUGAGGAUCACCCAUGUGAGGAUAUGAUACUAUGUACUUCGGUACAUAGUAUCAGAAGGCACAGGUG [Ex1-3: 59] (puzzle: Exclusion 1)	–	111	–	–	–	–
GGUGGGCUAGGAUAUGCUUUGGGUGGGCAUUCCUUCGAUAAACUUGAGGAUCACCCAAGUAGAAGGAGCUUGCC [salish99_ex2_r4_023] (Eterna round: R97, puzzle: Exclusion 2)	–	–	–	21.8	–	35.4
AGGUGUAGAGGAUAUCUCUUCUCUCACAUGAGGAUCACCCAUGUCCUAAAGACCAAGGAGAGAGAAGGCUACACCA [Omei Ex5 D6] (Eterna round: R97, puzzle: Exclusion 5)	–	–	–	42	–	41.8
ACAUGAGGAUCACCCAUGUACAGGGUUUAGUUUCAUCGUUUGAAGGAUAUACACCGUUAGUUGUCGUAGAAGGUCACAGAUUGG [JR_ExcNG3_Sub009] (Eterna round: R96, puzzle: Exclusion NG 3)	–	–	–	153	68.2	155
CCAUGUCCGGAGGAUAUGCGCAGACUUACUGCAGCAGAAGGUUGGACUUGAGGAUCACCCAAGUGACCAUUUGU [Esrebionra] (Eterna round: R97, puzzle: Exclusion 6)	–	–	–	445	–	36
CUGCUCCGUGUAGGAUAUGCGCGCACCACCCGCGCAGAAGGACAUGAGGAUCACCCAUGUAUGUUAUUAUCACGUGUGGCGCGC [Design 38] (Eterna round: R96, puzzle: Exclusion NG 1)	–	–	–	12.6	11.1	15.9
ACCUGGUGAGGAUAUGUUGGGAAUGAUCCUUUCGGAUUGACACAGAAGGCACAUGAGGAUCACCCAUGUGGGUG [Eternabot (L1) Solution 70] (Eterna round: R97, puzzle: Exclusion 4)	–	–	–	332	–	591
AUAAAACAUGAGGAUCACCCAUGUCAGGAUAUACGACUCCAACCAAACUGCUUGGACCGUAGAAGGGACAAGGG [Exclusion 1 (MOD2 Esqu)] (Eterna round: R97, puzzle: Exclusion 1)	–	–	–	140	–	277
ACAUGAGGAUCACCCAUGUCCGGCUGGUCCGUCUCGGCUGUCGAGGAUAUAGCUCGGUGUCCGCGCUAGAAGGUGGGAGCUGGU [Aenatbe mod 68] (Eterna round: R96, puzzle: Exclusion NG 3)	–	–	–	150	93.3	135
AUAAGGCUAGGAUAUGCAUGUGGCACAGCUCAGAAAAUAAGACAUGAGGAUCACCCAUGUAGAAGGAGCAUGCC [EX2 A.30] (Eterna round: R97, puzzle: Exclusion 2)	–	–	–	19.4	–	16.2
GUUAAUUGUCACAUGGGUGACAUGAGGAUCACCCAUGUCACAAGCUUUUUGUUCGUCUUAUAAUUAACCCAUGUGAC [Stov1/12-B2] (Eterna round: R97, puzzle: Sensor, turn-off variant 1)	–	–	–	16	–	14.4
GUCCUCAUGACAUGAGGAUCACCCAUGUAUUAUUUGUUAACUGAGGAUAUACUCUUAAUUUUUAUGUAGAAGGCAGAUUCGGUC [JR_ExcNG3_Sub020] (Eterna round: R96, puzzle: Exclusion NG 3)	–	–	–	–	24.8	–
AUCGUGCAGCUUUGCUGUACGAGUACAUGAGGAUCACCCAUGUAGGAUAUGGUACGCUUUGCGUGCCAGAAGGACGUGCGUUAG [salish99_ExNG3_r04_003] (Eterna round: R96, puzzle: Exclusion NG 3)	–	–	–	63.2	34.3	43.7
AUGUGGGUAAGAAGGUGAAGAUAGAGCGUACGUUAUGGAACAUGAGGAUCACCCAUGUAGCUUUUUGCUCGUCUUAU [JR_SV3TOV2_Sub033] (puzzle: Sensor v3, turn-off variant 2)	17.6	61.8	18.2	–	–	–
GGAUAAAACUGAGGAUAUACGCACCACUAACGAGUAGAAGGCAGACAUGAGGAUCACCCAUGUGAGUUCUCAAUAAGAAACACG [Prohibition 66 - Jieux - Exclusion NG 1] (Eterna round: R96, puzzle: Exclusion NG 1)	–	–	–	192	88.9	85.1
AAGUACCGUCACGAAAGUGAUGGUACAACAAGCAAAUGUACAUGAGGAUCACCCAUGUCCUCAAUUGCUCGUCUUAU [Sensor 3 - 57] (puzzle: Sensor v3, turn-off variant 2)	88.2	176	92.8	–	–	–
CUUUCGUCUGUGGGUGGUGACAUGAGGAUCACCCAUGUUUUGCUCGUCUUGUCCCGGGCCCGGCGCCCGGGCCCGGG [-38.7, -62.5, A 8%] (Eterna round: R97, puzzle: Sensor, turn-off variant 1)	–	–	–	1210	–	1340
UGGCUUUGAGGAUAUACAUUGAAUAAGAUUCAUGUAAAACUACAUGAGGAUCACCCAUGUAGAAGGCAAGGCCU [Mat - Exclusion 2 - JL Mod - D74] (Eterna round: R97, puzzle: Exclusion 2)	–	–	–	26.9	–	16
CAGUACUGAGGAUAUACAUGAGGAUCACCCAUGUAAUAAGGUUAGGAAACUAACCUAUGUAGAAGGCAGUACUG [Eli x3 4.07] (Eterna round: R97, puzzle: Exclusion 3)	–	–	–	13.2	–	14.7
UGUGAGCUAGGAUAUGCUUUGGGCUCGCUUUCCUUCGAUAAACUUGAGGAUCACCCAAGUAGAAGGAGCUUGCA [Mod 31 - Jieux - Exclusion 2] (Eterna round: R97, puzzle: Exclusion 2)	–	–	–	39.6	–	20.4
UAACUUCUUGUAAGGAUAUUGGCGCGAAAGCGAACCGAGAAGGUACAUGAGGAUCACCCAUGUGAAAUAAGAAU [Mod of Zala 14 - Jieux - Brourd's Mod of Exclusion 4] (Eterna round: R97, puzzle: Brourd's mod of Exclusion 4)	–	–	–	574	–	40.3
GAAAACGUAGGAUAUACGAAAAAAAAGGGUAGAAAAAAAACACAUGAGGAUCACCCAUGUAGAAGGACGAAAAG [salish99_ex2_r3_094] (puzzle: Exclusion 2)	66.3	38.9	55.4	–	–	–
CUGAUGUGAGGAUAUCGGGCUACGGCCAGGCCGCUAGCAUUCGAGAAGGCACAUGAGGAUCACCCAUGUGAGAA [Laquzara] (Eterna round: R96, puzzle: Exclusion 4)	–	–	–	230	112	153
